# Experimental data from the DeepSol protein solubility set.
# Test: soluble on expression in E. coli; label from the status in PepcDB or PDB records
row,Sequence,soluble on expression in E. coli
1,MSLQTQLVHELVENQPTKLLIYVKNIRTIRTKKGEQMAFVDGDDTTGSISLTLFPTVFRQLRQSVEKGQVYYVEGKVERSTYNQELQILVQRIEKAQQVETSISDETCFIRITKDVEQTDVFQKMKEVLSRHAGHIPVIVYFEKTGKKIVLNEENWVAHTSASQQQLAYVLGEQNVIFKEGHHHHHH,soluble
2,MKMKHMKPYTTMKTVLSTLAIALAFGPLHNAQACTRILYETGNQSYISGRSMDWADPSAATALWVFPKGMKRDGTVGDNPIKWSAKYGSIIVSFYDAGTADGMNEKGLVANMLYLKEAKWGDATKAGKPTLTAGAWAQYFLDNYATVEEAVTAMANPPFTIIAPSLPNGDAAALHLSISDVNGDSAIFEYIDGKLVIHHGSQYKVMTNSPTFDQQLALNTYWQQIGGSKFLPGTINAADRFVRASYALSASPKYRDNDLALASVFSQIRAVSVPLGITDPDRPNLAMTLWRTFADHTAKIYYFESAVFPAVSWLDMSKVDLTEGAAPKVVRVERGQPLAGELSAALKPAEPFKWLGAE,not soluble
3,MNVEINGKSLELSFGFKFLREIDNRLGLKVEQASIGQGVSMLPVGLESGNPVVIGEVLIASTSHLKKQAITINNIDEALDEIAENIGLEEFGSDILTELGKRPMTRNLVEVVETEEKPAEALEHHHHHH,not soluble
4,MSLSVPAAAPEDSVISAEETTTGSAVTNVQFSNEQVITENGKYKVSKLAPSLSFLPSNVELCCSVDAKSGYALCCDTDNVYVWPFLSSETHPSFVRIPLHDEEYESWSRPPLCCFTWPSVLERDLKSSPGLFLVNSRSGDIQFYEDVDTVSQVASFLTQTKRHKSVLKLRDGEYVENLINAEPAGILLSTNYGRVEFCTIRDANGKPFVSLKQTIIKCQVGIFSSMSKSKRVVSLKLGEISGKGERIVSILTQGGRYQVWNLSSVGNCYKKIDLNVQSEISQAVLEHFPLATSTLKLLDCHPLSGDSDAYLFLSFLAESNETHYLLSTIIVDEDTNSFAIFSTYRLNTYTRPLSDEFAPRLIVPTAYTKEHLPITSVYTLFSDAAVLTQTSSKLDSNYPFKRKWEDIIRFNKDMKVLGYDCNSSSLYITDGRTCALKLETFEKYENSDFQEIRFIKSHVDQYVYFGGQSTDEGHHHHHH,soluble
5,ISGGSSISMMYKYCSRLPHDEFFQPKPEFQFKPVDEFGGTICRITLPANAPISEIESSLLPSTEAAKKDACLKAVHELHNLGVLNDFLLPDSKDEIEDELSD,soluble
6,MGSDKIHHHHHHMKDWWQATFPNGRQTLIITDAKGYPVEISYGEKGKGKPLILLHGMGSWSYNWRHSVTELSKYFRVICFDAKGFGFSEKPLSRREHNGHQVIEFQRIIQALCDEPAVIVAESLGGLVALALAQENPQLIGQLVVVNVPVFAKRLPHWAMGLLAQTPLEIIQTIDSLRLAYFFAPLLREIMAIERRGVLFDPSILTKEDVYWITYPFIEFPGTLVKVAEELQIAAREIENWQADKPNMLTKIQNKLSIIKCPTLVLWGDQDSWFPATHGEKLHQHIPNSKLKILSNCYHDASTGASKELNAAILEFLRDGNTVLRSLDS,not soluble
7,MSLNNIAPQSPVMRRLTLQDNPAIARVIRQVSAEYGLTADKGYTVADPNLDELYQVYSQPGHAYWVVEYEGEVVGGGGIAPLTGSESDICELQKMYFLPAIRGKGLAKKLALMAMEQAREMGFKRCYLETTAFLKEAIALYEHLGFEHIDYALGCTGHVDCEVRMLRELEGHHHHHH,soluble
8,MGSDKIHHHHHHMFNESDAPQPPKVLSTPLEIAANLRQLQESHDPLIITFHDRSHRFQSYVVHVDRESNTLALDEMIPRDGEKFIENGEHFRVEGFHDGVRIAWECDHALKISEVDGHRCYSGPLPQEVTYHQRRNAFRAALKLSQLVDIILDGAHLKGNGAMRGKLLDISATGCKLRFEGNVEDRLQLGQVYERFKAGNPLGLVDTMVELRHLHYEERINTTFAGVRFHNLSGQAQRKIESFVYQLQREARRFDKDDY,not soluble
9,MSLDNKGDIWYDLISAVHKSIRGSDPDAALYWAARMISAGCDPLYIARRLLAIASEDVGNADPRGMQVALAAWDCFTRVGPAEGERAIAQAIVYLACAPKSNAVYTAWKQALSDAHNLPEFEVPPHLRNAPTRLMKDLGYGEEYRYAHDEPGAYAAGECYFPPEMSGTRYYQPTPRGLETKIAEKLAYLADLNAKSPQKEGHHHHHH,soluble
10,MHEFRDYYGHRVRLAFADHPFSPSPGHVWVICRYGGRWLLTDHPRRGLEFPGGKVEEGETAAEAAAREVMEETGGIVGRLEYIGQYKVEPDIVKNIYFADIAALVERGSYLETNGPVLLEALPDDIRSDQRFSYFMKDDVLSLALAKLKQRGLID,not soluble
11,MAHHHHHHMVTAVASVVFARFLRQRYPTVQRVSQYENLSTSPDAPCFVANRILTMTSSQAGTHADGPHHFCRSLSHRNYDDAHYSGDAVVLDIATELREHHQSLDPDASLAITVEVLEKARVKLPAAFRDGSRPVWRLLLVTRHSTATSPTSASATEALTGPPRVFFPLDVASPTQVATVGVKGGTAATLAEPSSNAYAFLYPEAVDYLHRVFPRLVLLGIDSPSVDLPQAMPPGQHSHGALLRCGIAILENLRYTRLSPLLESPAGNNQRGWISGSMLTVFNATQNYDDARGCSVIFFPEEAL,soluble
12,MSSQELVTLNVGGKIFTTRFSTIKQFPASRLARMLDGRDQEFKMVGGQIFVDRDGDLFSFILDFLRTHQLLLPTEFSDYLRLQREALFYELRSLVDLLNPYLLQPRPALVEVHFLSRNTQAFFRVFGSCSKTIEMLTGRITVFTEQPSAPTWNGNFFPPQMTLLPLPPQRPSYHDLVFQCGSDSTTDNQTGVRYVSIKPDNRKLANGTNVLGLLIDTLLKEGFHLVSTRTVSSEDKTECYSFERIKSPEVLITNETPKPETIIIPEQSQIKK,soluble
13,LGSLLEVAIPKPGNVSRYKDFEDLTFYHFLFGNTALIGPYFEATERGILLKEGKINESEVGIGELIRMAVAATKKYQDANPNFGIIVLSIPLIVSLSSGASIEDAGKMATRLISKSTPLDTVELYKAIRIANPKGIPRGVKYDVYSDTSFEDLVRDGINLYKLAEISCERELVFCEWLNNYDLTYETLKLLENNLEKEDLEGKVRKTFVVLLSKYEDTLIIRKAGIQEAKKVKEMATQLLKNKITEEEFERFMYEKRDLRNPGSLADIMATAL,not soluble
14,MYKRAEYHVITDRLKDRRRFIQVVMGARQIGKSTVVKQVLKDLDAPYQFFSADNVPTVNGAWISDCWAAVRSLKEAKEWESIILVIDEIQKIANWSEVVKKEWDDDTFHDRNIKVLLLGSSRVLLEKGLSESLAGRFEEIRMSHWSYQEMKDCFGFSLNQYLFYGGYPGAASLTDDDDRFSQYIQAAIIEATINKDILMGTPIGKPALLRRTFELGAAYSGELLSLNKMLGSLQDAGNTVTLAGYINLLDESGLLCGLQKFGYDMARRKASIPKLQVYNNALKMVYSPFTFEQAMLDRKSWGRIFESGIGAYLVSQAFVHRFEVFYWRERDDEVDFVLRKKGSVVAIEVKSNAEKRTDGLDKFSHSFKPQSAFILGDGGVRAEDFLSMDIRKLF,not soluble
15,MSLTTKYIFVTGGVVSSLGKGITAASLGRLLKNRGMKVTIQKFDPYINVDPGTMSPYQHGEVFVTDDGAETDLDLGHYERFIDINLNKNSNVTTGKIYSSVLKKERRGDYLGGTVQVIPHVTNEIKERVFRAGRETNADVVITEIGGTVGDIESLPFLEAIRQIKSDIGVDNVMYIHCTLIPYLAAAGEMKSKPTQHSVKELRSLGIQPNVIVVRTEKPVPEEMKEKIALFCDIRKDSVIEARDADTLYEVPLDLQAQNLDEIVCDHLNLSCQEADMTEWKSLVEKVKNLSGLVKIALVGKYVALPDAYLSVAEALRHAGYAFDADINIKWVDSEDVTAENVAEQLQGVDGILVPGGFGDRGIEGKIEAIRYAREQKIPFLGICLGMQLASIEFARNVLGLEGAHSAEINPDTPHPIIDLLPEQKDVEDMGGTLRLGLYPCKLKNGTLAQSAYNDQVIYERHRHRYEFNNQYREQMEAKGFMFSGTSPDGRLVEIVELGDHPFFIASQFHPEFVSRPTRPQPLFREFIQASLRKEGHHHHHH,soluble
16,MSLTQNIRPLPQFKYHPKPLETGAFEQDKTVECDCCEQQTSVYYSGPFYCVDEVEHLCPWCIADGSAAEKFAGSFQDDASIEGVEFEYDEEDEFAGIKNTYPDEMLKELVERTPGYHGWQQEFWLAHCGDFCVFIGYVGWNDIKDRLDEFANLEEDCENFGIRNSDLAKCLQKGGHCQGYLFRCLHCGKLRLWGDFSEGGSHHHHHH,soluble
17,MGSDKIHHHHHHMLPNRLLANRAYSTAINRFRVVEVGARDGLQAEKKFVPTEIKVELIDRLSECGFQTVETTSFVSPKWVPQLADHNEIVKKHRRFEGVSYPVLVPNAAGLKNALATGVVEEIAVFGAASDAFSLKNVNSNVEDSLKKLMEVTKIALENNIRVRGYVSVVVGCPYQGAVQPEMVARVAEKLLESGCYEVSLGDTIGVGTVKTVSKMLDTVLKSVPAEKLAVHFHDTYGQALANVLISIEKGIRSADSSIAGLGGCPYAKGATGNLATEDLLYFLKGNGFETGVNLDKVVETAKWFNEAAGYDKWSRVGAAMMAKKSKSCC,not soluble
18,PKIENPILIEGYPGIGLVGHIAANFLAKELKMEVIGYVESSFIPPMSLILEGKPNPPLRFYGKDNIIIAVADIYLPPTLINEIAKEIANYLEQNKAEKVISLGGMGIGIFKDKFEVWGVGGTEEENKELQDLGVKILEYGSISGMSGKLLWEASRRGLKSYVILGETFGDRPDPRAAANVVEVLDRMLTLNVSVEPLLKEAEMIEEQLRKMHEQMEKARRSVEKQYETMYL,not soluble
19,FRFCFKQMNKSQHELVLGWIHQPHINEWLHGDGLSNTIKDLHEFLNDGKPWATHWIAYDNEIPFAYLITSEIEKSEEYPDGAVTLDLFICRLDYIGKGLSVQMIHEFILSQFSDTKIVLINPEISNERAVHVYKKAGFEIIGEFIASWHPVPHYKMKLCI,not soluble
20,MGSMVCDVCHHECETAKELESHRQSCINGQCPYCMTITEATESALQAHYSICKLTGR,soluble
21,MDADASTITPEELDFIRQRALRRFDSIVPTAGREGTEIASDIFKGRTLAIYTSGGDSQGMNSAVRSITRMAIYCGCKVYLIYEGYEGMIEGGDFIKEATWNTVSDIIQQGGTIIGSARSSEFRTREGRLKAATNLINRGIGRLVCIGGDGSLTGANTFRLEWTDLVQELVKNQRVTAAAAKKIPYIQIVGLVGSIDNDFCGTDMTIGTDSALQRIISSIDAVVATAQSHQRAFVIEVMGRHCGYLALVAALASEADFCFIPEWPAPENWRDVLCDKLSQMRSEGQRLNIIIVAEGAIDRDGKAITAEDVKTAVKEKLKYDTRVTILGHVQRGGAPSAFDRLLGCRMGAEAVFALMEMTEESEPCVISIDGNVMVRVPLLKCVERTQMVQKAMADKDWTTAVMLRGRSFQRNLETYKLLTKMRTVEKDNLSEGHKFNVAVINVGAPAGGMNAAVRSYVRMALYHQCTVYGIEDSFEGLANGSFKQFKWSDVTNWAMNGGSFLGTQKSLPTEKTMPQLAAQLKKHNIQALLLVGGFEAYHSTIILAENREKYPEFCIPMCVIPCTISNNVPGTMVSLGSDTAINEICQMIDKIKQSATGTKRRVFIVETMGGYCGYLATLSALSSGADNAYIFEEPFTVQDLSDDVDVILSKMEVGAKRYLVVRNEWADKNLTTDFVQNLFDSEGKKNFTTRVNVLGHVQQGGSPTPFDRNMGTKLAARALEFLLIQLKENLTADNKVIAKSAHTATLLGLKGRKVVFTPVQDLKKETDFEHRLPSEQWWMALRPLLRVLARHRSTVESSAILESVEEESADSHMF,not soluble
22,MRRMVDHDALHRRWLGALVGARGGAAQPDPAPYGENLLRRWSEPQRRYHTVEHLAAVLDRVDLLAEYADDPDVVRLAAWFHDAVYFPDRSENEERSARLAERALPEAGVSGARTAEVARLVRLTVTHDPADDDRDGRVLCDADLAILAAPPKTYAAYAAAVREEYAFVPDDSFRAGRAAVLRQLLDLPRLFRTPYGEREWEERARENLREELARLDDRGTSGAAQLEHHHHHH,not soluble
